Experimental data reported in PMC9234707, “Type II BMP and activin receptors BMPR2 and ACVR2A share a conserved mode of growth factor recognition” (The Journal of Biological Chemistry, 2022).

Target: the molecule itself
Test: crystal structure; purified GF combined with 1.2 M excess of purified, deglycosylated receptor GBD; buffer exchanged to 10 mM Tris-HCl, 40 mM NaCl, pH 8.0; BMPR2-activin B crystals in 14% PEG 3K, 175 mM (NH4)2SO4, 100 mM BisTris pH 5.4; ACVR2A-activin A crystals in 17% PEG 3K, 100 NaCitrate pH 5.8

B1: activin A (ligand, human (by the printed accession), UniProt P08476 311-426, looked up)
chain: GLECDGKVNICCKKQFFVSFKDIGWNDWIIAPSGYHANYCEGECPSHIAGTSGSSLSFHSTVINHYRMRGHSPFANLKSCCVPTKLRPMSMLYYDDGQNIIKKDIQNMIVEECGCS
notes: activin A (inhibin beta A chain), full mature moiety, residues 311 to 426; disulfide linked dimer; it was removed with the prodomain; also called ActA; INHBA
binding result: binds

B2: activin B (ligand, human (by the printed accession), UniProt P09529 293-407, looked up)
chain: GLECDGRTNLCCRQQFFIDFRLIGWNDWIIAPTGYYGNYCEGSCPAYLAGVPGSASSFHTAVVNQYRMRGLNPGTVNSCCIPTKLSTMSMLYFDDEYNIVKRDVPNMIVEECGCA
notes: activin B (inhibin beta B chain), full mature moiety, residues 293 to 407; disulfide linked dimer; also called ActB; INHBB
binding result: binds
